Source: patent publication US20200405813A1 (SUTRO BIOPHARMA, published 2020)

What was measured:
[1] = biological target: Muc16 on Muc16-positive OVCAR3 cells (UniProt Q8WXI7 1-14507, limits assumed); experiment: cell-based or functional assay
[2] = biological target: FolR1 (folate receptor alpha) on FolR1-positive KB or Igrov1 cells (UniProt P15328 25-234, limits assumed); experiment: cell-based or functional assay
FolR1 (folate receptor alpha) on FolR1-positive KB or Igrov1 cells, sequence (P15328 25-234 limits assumed): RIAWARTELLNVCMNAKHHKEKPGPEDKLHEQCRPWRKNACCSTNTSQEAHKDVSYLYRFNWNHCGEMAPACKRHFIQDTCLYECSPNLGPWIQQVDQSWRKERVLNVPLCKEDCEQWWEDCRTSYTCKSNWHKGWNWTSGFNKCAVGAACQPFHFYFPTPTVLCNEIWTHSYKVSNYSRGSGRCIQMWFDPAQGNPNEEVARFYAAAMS

B1: Conjugate 49: anti-MUC16 sofituzumab+ Compd 401/Compd 101 (sofituzumab HC:4x pAMF iADC, 70% TLR agonist, DAR 3.9) (antibody, human IgG1, kappa, V domains shown)
VH: EVQLVESGGGLVQPGGSLRLSCAASGYSITNDYAWNWVRQAPGKGLEWVGYISYSGYTTYNPSLKSRFTISRDTSKNTLYLQMNSLRAEDTAVYYCARWTSGLDYWGQGTLVTVSS
VL: DIQMTQSPSSLSASVGDRVTITCKASDLIHNWLAWYQQKPGKAPKLLIYGATSLETGVPSRFSGSGSGTDFTLTISSLQPEDFATYYCQQYWTTPFTFGQGTKVEIKR
modifications: pAMF at Y180 and F404 conjugated to a mixture of Compound 401 and Compound 101
Cell Killing on OVCAR3 (Muc16+), EC50 [1]: 0.1

B2: Conjugate 1: anti-FolR1-Compd 101 ADC (FolRα antibody 1848-B10 ADC, DAR 4) (antibody, human IgG1, kappa, V domains shown)
VH: EVQLVESGGGLVQPGGSLRLSCAASGFNTTTKSIHWVRQAPGKGLEWVGEIYPRDGITDYADSVKGRFTISADTSKNTAYLQMNSLRAEDTAVYYCARGGWHWRSGYSYYLDYWGQGTLVTVSS
VL: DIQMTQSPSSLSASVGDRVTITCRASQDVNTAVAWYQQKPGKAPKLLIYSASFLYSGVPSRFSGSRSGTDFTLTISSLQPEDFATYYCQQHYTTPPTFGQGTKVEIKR
modifications: pAMF (para-azidomethyl-L-phenylalanine) at Y180 and F404 conjugated to Compound 101 (by Table 16; Tables 8 and 10 say Y180 and K42 sites)
Cell Killing on FolR1+ Igrov1 Cells, EC50 [2]: 0.03 nM
